Results published in patent US12643954B2, “Anti-CD36 antibodies and their use to treat cancer” (ONA Therapeutics, S.L., priority 2020, dated 2026).

Tests used:
[1] = target: T1, cells overexpressing human CD36 (Homo sapiens, UniProt P16671); assay: FACS binding to cells overexpressing human CD36
T1 construct: expressed in transfected cells
Procedure: For FACS analysis, cells were trypsinized, collected in a 15 mL tube and diluted in washing buffer (2% FBS in PBS). Cells were then centrifuged at 1500 rpm for 5 min at 4° C., supernatant was discarded, and cells were resuspended in fresh washing buffer. Anti-CD36 antibodies were either omitted (control wash buffer treatment) or serially diluted in washing buffer (dilution range up to 100 nM), and then added to the cells. Incubation was performed on ice for 1 hour. Cells were then centrifuged at 1500 rpm for 5 min at 4° C., supernatant was discarded, and cells were resuspended in fresh washing buffer. Finally, cells were incubated with a […] (BV421 Rat Anti-Mouse IgA, Becton Dickinson, reference 743293) diluted 1:100 in washing buffer, washed and analysed by FACS.

FaDu cells = assay: FaDu orthotopic mouse model of oral cancer metastasis; assay type: in vivo
Procedure: NOD scid gamma (NSG) (NOD.Cg-Prkdc^scidII2rg^tm1Wj1/SzJ) mice were purchased from Charles River and crossed in-house. All mice were housed under a regimen of 12h light/12h dark cycles and SPF conditions, and all procedures were evaluated and approved by the CEEA (Ethical Committee for Animal Experimentation) from the Government of Catalunya. SCC intra-tongue injection was performed as previously described (Oskarsson et al., 2014; Nieman et al., 2011). Briefly, mice were anesthetized by intraperitoneal injection with a mixture of 50 mg per kg of ketamine and 0.5 mg per kg of medetomidin, and SCC cells resuspended in 30 μl PBS were injected into each mouse tongue with a BD ultra-fine 6 mm needle. Mice were monitored for the luciferase bioluminescent signal immediately after injection (TO) and once weekly thereafter with a Xenogen IVIS Imaging System-100 (Caliper Life Sciences). Briefly, animals were injected by retro-orbital injection with 50 μl of D-luciferin (Promega) diluted in 1×PBS at 5 mg ml^−1. Continuous administration of isofluorane gas was provided to ensure anesthetizing animals during imaging. Data was quantified with the Living Image software version 4.4 (Caliper Life Sciences). Quantifications were calculated with unsaturated pixels. Color scale minimum and maximum values are shown in pictures.
Studies on the combination of the effects of the ONA-0-v1 anti-CD36 antibody, both with and without cisplatin, were performed in NSG mice (immuno-deficient). The studies included both male and female mice. All mice were inoculated with commercially available FaDu (ATCC) cancer cells, transduced with a retroviral vector expressing luciferase and the green fluorescent protein (Luc-GFP). FaDu cells were derived from a squamous cell carcinoma (i.e., from an oral cancer). Prior to inoculation, the FaDu cells were cultured in a humidified incubator at 37° C. with 5% CO2, and were grown in EMEM (LONZA) supplemented with 5 μg ml^−1 penicillin/streptomycin and 10% FBS (GIBCO).
For each mouse, 100,000 FaDu cells were inoculated via orthotopic injection.
Treatment of the inoculated mice began nine days after inoculation with the cancer cells. Inoculated mice were divided into four distinct treatment groups.
Antibody treatments were administered via intraperitoneal (i.p.) injection daily at a dose of 1 mg/kg. Cisplatin was administered twice weekly at a dose of 2 mg/kg (Groups 2 and 4). […] During the course of treatment, mice were observed once weekly using an in vivo imaging system (IVIS). Further, mouse body weight was measured twice weekly to update appropriate dosage amounts. At the end of the treatment period, the mice were sacrificed, and organs and tissues were collected for performance of immunohistochemistry analysis.

OVCAR-3 cells = assay: OVCAR-3 orthotopic mouse model of ovarian cancer (Example 9); assay type: in vivo
Procedure: Studies of the effects of the ONA-0-v1 and 1G04 anti-CD36 antibodies on ovarian cancer were performed in NSG mice (immuno-deficient). The studies included only female mice. All mice were inoculated with commercially available OVCAR-3 (ATCC) cancer cells. OVCAR-3 cells were derived from a human progressive adenocarcinoma of the ovary (i.e., from an ovarian cancer). For each mouse, a piece of an OVCAR-3 xenograft was implanted orthotopically. Prior to inoculation, the OVCAR-3 cells were cultured in a humidified incubator at 37° C. with 5% CO2, and were grown in RPMI-1640 supplemented with 5 μg ml^−1 penicillin/streptomycin, 0.01 mg/ml bovine insulin and 20% FBS (GIBCO).
Treatment of the implanted mice began 7 days after implantation with the OVCAR-3 tumor pieces. Inoculated mice were divided into one of three treatment groups: vehicle injection control (n=9), ONA-0-v1 treatment (n=9), or 1G04 treatment (n=9). ONA-0-v1 antibody treatments were administered via intraperitoneal (i.p.) injection daily at a dose of 3 mg/kg. 1G04 antibody treatments were administered via i.p. injection TIW (three-times weekly) at a dose of 10 mg/kg. Control mice received an equal volume of vehicle daily. […] Mice were sacrificed at the end of the treatment period. Upon sacrifice, organs and tissues were collected for performance of necropsy and histopathology analysis.

[2] = antibody alone 1 mg/kg i.p. daily
[3] = antibody in combination with cisplatin

T1 sequence (P16671 whole entry): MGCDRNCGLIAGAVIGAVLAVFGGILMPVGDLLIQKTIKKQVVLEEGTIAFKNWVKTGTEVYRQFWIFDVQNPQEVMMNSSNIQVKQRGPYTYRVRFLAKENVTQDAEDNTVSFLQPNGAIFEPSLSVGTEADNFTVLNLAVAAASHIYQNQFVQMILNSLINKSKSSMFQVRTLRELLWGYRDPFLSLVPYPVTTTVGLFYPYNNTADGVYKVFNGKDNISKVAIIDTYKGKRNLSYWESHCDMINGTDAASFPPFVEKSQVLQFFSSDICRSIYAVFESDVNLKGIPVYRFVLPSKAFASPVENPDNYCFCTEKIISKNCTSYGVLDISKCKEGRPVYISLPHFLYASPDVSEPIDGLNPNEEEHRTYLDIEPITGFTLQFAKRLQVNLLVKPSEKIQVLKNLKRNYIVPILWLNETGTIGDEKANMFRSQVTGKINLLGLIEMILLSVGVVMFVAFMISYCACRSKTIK

B1: ONA-0-v1: murine IgA anti-CD36 antibody; heavy chain SEQ ID NO: 5, light chain SEQ ID NO: 7 (antibody)
heavy: QVQLKQSGADLVRPGASVKLSCKASGYTFTDYYINWVKQRPGQGLEWIARIYPGSGNTYYNEKFKGKATLTAEKSSSTAYMQLSSLTSEDSAVYFCARGIGGGFGMDYWGQGTSVTVSSESARNPTIYPLTLPPVLCSDPVIIGCLIHDYFPFGTMNVTWGKSGKDITTVNFPPALASGGRYTMSSQLTLPAVECPEGESVKCSVQHDSNPVQELDVNCSPTPPPPITIPSCQPSLSLQRPALEDLLLGSDASITCTLNGLRNPEGAAFTWEPSTGKDAVQKKAAQNSCGCYSVSSVLPGCAERWNSGASFKCTVTHPESGTLTGTIAKVTVNTFPPQVHLLPPPSEELALNELLSLTCLVRAFNPKEVLVRWLHGNEELSPESYLVFEPLKEPGEGATTYLVTSVLRVSAETWKQGDQYSCMVGHEALPMNFTQKTIDRLSGKPTNVSVSVIMSEGDGICY
light: SIVMTQTPKFLLVSAGDRITITCKASQSVSDDVAWYQQKPGQSPKLLIYYASNRYTGVPDRFTGSGYGTDFTFTISTVQAEDLAVYFCQQDYSSPLTFGAGTKLEIKRADAAPTVSIFPPSSEQLTSGGASVVCFLNNFYPKDINVKWKIDGSERQNGVLNSWTDQDSKDSTYSMSSTLTLTKDEYERHNSYTCEATHKTSTSPIVKSFNRNEC
modifications: ONA-0-v1 heavy chain; ONA-0-v1 light chain
binding to cells overexpressing human CD36 (FACS) ([1]; antibodies at 100 nM): bound equivalently
binding to cells overexpressing human CD36 (FACS) ([1]; serial dilution up to 100 nM): specifically bound
tolerability over the course of treatment (FaDu cells; NSG mice): well-tolerated
effect on mouse body weight relative to isotype control (FaDu cells; antibody alone): did not have any effects
effect on platelet count relative to isotype control (FaDu cells; antibody alone): did not have any effects
growth of lymph node metastases (IVIS relative intensity) (FaDu cells; [2]): able to inhibit growth
inhibition of lymph node metastatic tumor growth relative to IgA isotype control (ratio of IVIS intensity end/start) (FaDu cells; [2]): greater than 50%
effect on cisplatin-mediated weight loss and decrease in platelet count (FaDu cells; [3]): did not significantly enhance
growth of lymph node metastases (IVIS relative intensity) (FaDu cells; [3]): almost complete inhibition
mice in which metastasis into lymph nodes was prevented (FaDu cells; antibody in combination with cisplatin, eight tested mice): five of the eight
mice in which metastasis into lymph nodes was prevented (FaDu cells; single agent, eight tested mice per group): one of the eight
effect on primary tumor (IVIS imaging and H&E staining) (FaDu cells; single agent, antibody 1 mg/kg i.p. daily, cisplatin 2 mg/kg twice weekly): did not have a statistically significant effect
decrease in total number of metastases relative to vehicle (OVCAR-3 cells; ONA-0-v1 3 mg/kg i.p. daily, 1G04 10 mg/kg i.p. TIW): approximately 45%
mice free of metastasis in the liver (OVCAR-3 cells; macroscopic analysis): 78%
mice having 1-2 mm metastasis in the liver (OVCAR-3 cells; macroscopic analysis): 17%
mice having 1-2 mm metastasis in the peritoneal wall (OVCAR-3 cells; macroscopic analysis): 19%
mice having 2-5 mm metastasis in the liver (OVCAR-3 cells; macroscopic analysis): 6%
mice having 2-5 mm metastasis in the peritoneal wall (OVCAR-3 cells; macroscopic analysis): 19%
mice having <1 mm metastasis in the liver (OVCAR-3 cells; macroscopic analysis): none
mice having >5 mm metastasis in the peritoneal wall (OVCAR-3 cells; macroscopic analysis): 19%
mice metastasis-free in the peritoneal wall (OVCAR-3 cells; macroscopic analysis): 44%
animals free of metastases in the lung (OVCAR-3 cells; microscopic analysis): 44%
mean metastasis number in the lungs per mouse (OVCAR-3 cells; microscopic analysis): 1.6
weight of mice throughout the treatment period (OVCAR-3 cells; mouse, in vivo): remained the same
total number of metastases counted (OVCAR-3 cells; visual inspection of organs, sum per group): 29
